From publication PMC12389326, “The Impact of the Injected Mass of the Gastrin-Releasing Peptide Receptor Antagonist on Uptake in Breast Cancer: Lessons from a Phase I Trial of [^99mTc]Tc-DB8” (Pharmaceutics, 2025)

What was measured:
[1] = design: species or system human; details: in vivo
Method: (§1) Dosimetry was evaluated as described in [44]. Briefly, regions of interest (ROI) were drawn over organs of interest and over the whole body on the anterior and posterior whole-body images of patients injected with [^99mTc]Tc-DB8; a geometric mean of counts at 2, 4, 6, and 24 h was calculated for each ROI. To assess elimination kinetics in blood, a ROI was placed over the heart. For quantification, a known activity of Tc-99m in a water-filled phantom in combination with Chang’s correction was used. Data were fitted by single exponential functions and residence time was calculated as areas under fitted curves using GraphPad Prism 8.0 (GraphPad Software, San Diego, CA, USA). Absorbed doses were calculated by OLINDA/EXM 1.1 using Adult Female phantom.

clinical = assay: clinical; design: species or system human; details: in vivo; for tissue uptake dose at 4 h / tissue uptake dose at 6 h / tissue uptake dose at 24 h / tissue uptake dose at 2 h: human, SD
Method: Imaging was performed using a Siemens Symbia Intevo Bold scanner equipped with a high-resolution, low-energy collimator. Anterior and posterior planar whole-body imaging (at a scan speed of 12 cm/min, 1024 × 256 pixel matrix) was performed at 2, 4, 6, and 24 h after injection of [^99mTc]Tc-DB8. SPECT/CT scans (SPECT: 60 projections, 20 s each, stored in 256 × 256 pixel matrix/CT: 130 kV, effective 36 mAs) covering the area from the neck to liver were performed 2, 4, and 6 h after injection of [^99mTc]Tc-DB8. SPECT images were reconstructed using xSPECT (Siemens) protocol based on the ordered subset conjugate gradient (OSCG) method (24 iterations, 2 subsets) with a 3D Gaussian FWHM 10 mm filter (Soft Tissue). The images were processed using the proprietary software package Syngo.via Workstation (Siemens Healthineers).
as §1

[2] = cited from earlier work
Method: The injected activities were selected to enable good counting statistics, permitting accurate dosimetry calculations up to 24 h after injection. […] Considering that the clear SPECT visualization was already observed 2 h after injection, the injected activ ...

[3] = 40 ug, Uptake in Liver (decay-corrected)
[4] = 40 ug, Uptake in Lungs (decay-corrected)
[5] = 40 ug, Uptake in Pancreas (decay-corrected)
[6] = 40 ug, total radioactivity, Uptake in Breast (decay-corrected)
[7] = 40 ug, total radioactivity, Uptake in Kidney (decay-corrected)
[8] = 40 ug, total radioactivity, Uptake in Small Intestine (decay-corrected)
[9] = 80 ug, Uptake in Liver (decay-corrected)
[10] = 80 ug, Uptake in Lungs (decay-corrected)
[11] = 80 ug, Uptake in Pancreas (decay-corrected)
[12] = 80 ug, total radioactivity, Uptake in Breast (decay-corrected)
[13] = 80 ug, total radioactivity, Uptake in Kidney (decay-corrected)
[14] = 80 ug, total radioactivity, Uptake in Small Intestine (decay-corrected)
[15] = 120 ug, Uptake in Liver (decay-corrected)
[16] = 120 ug, Uptake in Lungs (decay-corrected)
[17] = 120 ug, Uptake in Pancreas (decay-corrected)
[18] = 120 ug, total radioactivity, Uptake in Breast (decay-corrected)
[19] = 120 ug, total radioactivity, Uptake in Kidney (decay-corrected)
[20] = 120 ug, total radioactivity, Uptake in Small Intestine (decay-corrected)

In the case of `CCNC(=O)[C@H](CC(C)C)NC(=O)[C@H](Cc1c[nH]cn1)NC(=O)CNC(=O)[C@@H](NC(=O)[C@H](C)NC(=O)[C@H](Cc1c[nH]c2ccccc12)NC(=O)[C@H](CCC(N)=O)NC(=O)[C@@H](Cc1ccccc1)NC(=O)COCC(=O)Nc1ccc(CNC(=O)C(CNCCN)CNCCN)cc1)C(C)C` [[^99mTc]Tc-DB8, metal not drawn], the “Absorbed dose, Urinary bladder wall” value [1] is reported as 0.02 ± 0.01 mGy/MBq, the Absorbed equivalent dose [1] is reported as 4.6 mSv and the Effective dose [1] is reported as 0.009–0.014 mSv/MBq. For the same compound, the tissue uptake dose at 4 h (clinical; [3]) was 2.1 ± 1.1 %ID, the tissue uptake dose at 6 h (clinical; [3]) was 1.6 ± 0.8 %ID and the tissue uptake dose at 24 h (clinical; [3]) was 0.8 ± 0.4 %ID. It also gave a tissue uptake dose at 2 h (clinical; [4]) of 3.8 ± 0.5 %ID, a tissue uptake dose at 4 h (clinical; [4]) of 2.3 ± 0.3 %ID and a tissue uptake dose at 6 h (clinical; [4]) of 1.6 ± 0.2 %ID. The tissue uptake dose at 24 h (clinical; [4]) was 0.7 ± 0.1 %ID, the tissue uptake dose at 2 h (clinical; [5]) was 1.5 ± 0.5 %ID and the tissue uptake dose at 4 h (clinical; [5]) was 0.9 ± 0.4 %ID. It also gave a tissue uptake dose at 6 h (clinical; [5]) of 0.7 ± 0.3 %ID, a tissue uptake dose at 24 h (clinical; [5]) of 0.35 ± 0.09 %ID and a tissue uptake dose at 2 h (clinical; [6]) of 4.2 ± 1.1 %ID. For the same compound, the tissue uptake dose at 4 h (clinical; [6]) was 2.4 ± 0.4 %ID, the tissue uptake dose at 6 h (clinical; [6]) was 1.7 ± 0.3 %ID and the tissue uptake dose at 24 h (clinical; [6]) was 0.7 ± 0.1 %ID. The tissue uptake dose at 2 h (clinical; [7]) was 3.1 ± 1.9 %ID, the tissue uptake dose at 4 h (clinical; [7]) was 2.1 ± 0.9 %ID and the tissue uptake dose at 6 h (clinical; [7]) was 1.6 ± 0.5 %ID. It also gave a tissue uptake dose at 24 h (clinical; [7]) of 0.9 ± 0.2 %ID, a tissue uptake dose at 2 h (clinical; 40 ug, total radioactivity, Uptake in Liver (decay-corrected)) of 3 ± 1.6 %ID and a tissue uptake dose at 2 h (clinical; [8]) of 4.2 ± 1.6 %ID. It also gave a tissue uptake dose at 4 h (clinical; [8]) of 2.8 ± 1.1 %ID, a tissue uptake dose at 6 h (clinical; [8]) of 2.1 ± 0.7 %ID and a tissue uptake dose at 24 h (clinical; [8]) of 1.4 ± 0.3 %ID. It also gave a tissue uptake dose at 2 h (clinical; [9]) of 3.3 ± 0.9 %ID, a tissue uptake dose at 4 h (clinical; [9]) of 2.2 ± 0.8 %ID and a tissue uptake dose at 6 h (clinical; [9]) of 1.4 ± 0.7 %ID. For the same compound, the tissue uptake dose at 24 h (clinical; [9]) was 0.7 ± 0.3 %ID, the tissue uptake dose at 2 h (clinical; [10]) was 5.9 ± 1.6 %ID and the tissue uptake dose at 4 h (clinical; [10]) was 4.1 ± 1.6 %ID. It also gave a tissue uptake dose at 6 h (clinical; [10]) of 2.8 ± 1.2 %ID, a tissue uptake dose at 24 h (clinical; [10]) of 0.9 ± 0.4 %ID and a tissue uptake dose at 2 h (clinical; [11]) of 1.2 ± 0.3 %ID. It also gave a tissue uptake dose at 4 h (clinical; [11]) of 0.8 ± 0.3 %ID, a tissue uptake dose at 6 h (clinical; [11]) of 0.6 ± 0.3 %ID and a tissue uptake dose at 24 h (clinical; [11]) of 0.2 ± 0.1 %ID. For the same compound, the tissue uptake dose at 2 h (clinical; [12]) was 6.2 ± 1.9 %ID, the tissue uptake dose at 4 h (clinical; [12]) was 3.4 ± 1.7 %ID and the tissue uptake dose at 6 h (clinical; [12]) was 2.7 ± 1.2 %ID. The tissue uptake dose at 24 h (clinical; [12]) was 0.8 ± 0.4 %ID, the tissue uptake dose at 2 h (clinical; [13]) was 5.1 ± 2.1 %ID and the tissue uptake dose at 4 h (clinical; [13]) was 2.8 ± 0.9 %ID. It also gave a tissue uptake dose at 6 h (clinical; [13]) of 2.2 ± 0.9 %ID, a tissue uptake dose at 24 h (clinical; [13]) of 1.2 ± 0.8 %ID and a tissue uptake dose at 2 h (clinical; [14]) of 3.4 ± 1.1 %ID. The tissue uptake dose at 4 h (clinical; [14]) was 2.2 ± 0.6 %ID, the tissue uptake dose at 6 h (clinical; [14]) was 1.6 ± 0.6 %ID and the tissue uptake dose at 24 h (clinical; [14]) was 0.7 ± 0.4 %ID. It also gave a tissue uptake dose at 2 h (clinical; [15]) of 2.2 ± 0.9 %ID, a tissue uptake dose at 4 h (clinical; [15]) of 1.5 ± 0.7 %ID and a tissue uptake dose at 6 h (clinical; [15]) of 1.1 ± 0.5 %ID. The tissue uptake dose at 24 h (clinical; [15]) was 0.5 ± 0.2 %ID, the tissue uptake dose at 2 h (clinical; [16]) was 3.5 ± 1.3 %ID and the tissue uptake dose at 4 h (clinical; [16]) was 2 ± 1 %ID. For the same compound, the tissue uptake dose at 6 h (clinical; [16]) was 1.6 ± 0.7 %ID, the tissue uptake dose at 24 h (clinical; [16]) was 0.6 ± 0.2 %ID and the tissue uptake dose at 2 h (clinical; [17]) was 0.8 ± 0.2 %ID. It also gave a tissue uptake dose at 4 h (clinical; [17]) of 0.5 ± 0.1 %ID, a tissue uptake dose at 6 h (clinical; [17]) of 0.34 ± 0.09 %ID and a tissue uptake dose at 24 h (clinical; [17]) of 0.15 ± 0.06 %ID. For the same compound, the tissue uptake dose at 2 h (clinical; [18]) was 3.5 ± 1.1 %ID, the tissue uptake dose at 4 h (clinical; [18]) was 2 ± 0.8 %ID and the tissue uptake dose at 6 h (clinical; [18]) was 1.3 ± 0.5 %ID. The tissue uptake dose at 24 h (clinical; [18]) was 0.6 ± 0.2 %ID, the tissue uptake dose at 2 h (clinical; [19]) was 3.5 ± 1.6 %ID and the tissue uptake dose at 4 h (clinical; [19]) was 2.2 ± 1 %ID. For the same compound, the tissue uptake dose at 6 h (clinical; [19]) was 1.7 ± 0.8 %ID, the tissue uptake dose at 24 h (clinical; [19]) was 1.1 ± 0.4 %ID and the tissue uptake dose at 2 h (clinical; [20]) was 3.3 ± 1 %ID. For the same compound, the tissue uptake dose at 4 h (clinical; [20]) was 2.1 ± 0.7 %ID, the tissue uptake dose at 6 h (clinical; [20]) was 1.8 ± 0.6 %ID and the tissue uptake dose at 24 h (clinical; [20]) was 1.1 ± 0.4 %ID. For the same compound, the Route of elimination (clinical) was “predominantly via the kidneys”.

For [^18F]FDG, the “Absorbed dose after injection for visualization of breast cancer” value [2] is listed as 2.5–4.3 mSv.
